# Experiment: soluble on expression in E. coli; label from the status in PepcDB or PDB records
row,Sequence,soluble on expression in E. coli
1,MSLSNYSTGELAKLCNVTTRTIQYYDRKGILKPQGFTEGKRRVYTEQQRQTLELILLLKDLGCALSDIDMLLKGEGTLKTLNTLLTMKQQEINQQVKQQQAVLNKIKNVQYYVNEASTSPITHLKDIEHVMSKSAEGHHHHHH,soluble
2,MSEMPAREQMISAYSELVGLDPVSLGDGVAEVRLPMAAHLRNRGGVMHGGALFSLMDVTMGLACSSSHGFDRQSVTLECKINYIRAVADGEVRCVARVLHAGRRSLVVEAEVRQGDKLVAKGQGTFAQL,soluble
3,SETWSVEQVCSWLVEKNLGELVHRFQEEEVSGAALLALNDRMVQQLVKKIGHQAVLMDLIKKYKQNTQGLKSPENPKKAALVMQTEAARDYRDKESSSPARHGEQMPSFYPAENLDNGLIDQRVLKQRRNVKQILARSKALQWTKSYVLPEFPYDVKCMLAEQKCPDHSMRIRIIEFLQADMTKYLEGSLYPSTQQYNDVVNALLQAHPFLDEDGCGFAGV,soluble
4,MEKIIVRGGKQLNGSVKMEGAKNAVLPVIAATLLASKGTSVLKNVPNLSDVFTINEVLKYLNADVSFVNDEVTVDATGEITSDAPFEYVRKMRASIVVMGPLLARTGSARVALPGGCAIGSRPVDLHLKGFEAMGAVVKIENGYIEATAEKLVGAKVYLDFPSVGATQNIMMAATLAEGTTVIENVAREPEIVDLANFLNQMGARVIGAGTEVIRIEGVKELTATEHSIIPDRIEAGTFMIAAAITGGNVLIEDAVPEHISSLIAKLEEMGVQIIEEENGIRVIGPDKLKAVDVKTMPHPGFPTDMQSQMMVIQMLSEGTSIMTETVFENRFMHVEEMRRMNADMKIEGHSVIISGPAKLQGAEVAATDLRAAAALILAGLVADGYTQVTELKYLDRGYNNFHGKLQALGADVERVDDSKVDVTNLASLF,not soluble
5,MVISLGDDITTVLKTVQQTLFALRDEHEAATRILEANLINSDSSEPSLPSEKMGLIDESLGKVMDGGDEASLLIMMDKLMQSYDVQLSKNHESIRLLRQENTWLLDELTTTQRKLQESERTVAHLEEERDHYKFQDSMNYLNSDFQHTTSVDATPMMVDTLQELGFGPEEEDQNNNQADQGCRSSSFSNPISNDYQLPTRLQTLQNLVIQYMEQGRFEVAIPLCKQALEDVVKVHGNVHLDVATMLNVLAIVYRNQENFKDAAIYLEKALSIRVQCCGENHHSVAATLNNLAIAYGKRGKYKESEPLCKRALEIRKNLLGPNHPDVAKQLTNLGIVTQQLEKYEETENYFKQALSIYNRAFPENHQNVIKTKNQLASVFLKQGKYQEAEEMYKNILSKVAITGNKPIWRIAEDREERQRNGIPKVDDESFNVNPTTVMDSNVMSTIKNLAAVYRKQGKEEAAGTLEEALGAKKQINGGADHTNSTASSVETSSAVAINPAQSGIKKRIMHFVGLNF,not soluble
6,MSLSVSDELQLFAQEIQRFLSPNTLRNLARDVGFVQRTSKYQAKDLVALCVWMNQNIATTSLTQLSSCLEASTEVLISPEGLNQRFNKAAVQFLQHILAELLSRKLTSSIPISSPYTSVFKRIRILDSTAFQLPDVFSSVYPGAGGCSHTAGIKIQLEYDLLSGQFLHIHTGPGKQHDRTYGSLCAPTVTANDLCIRDLGYFHLKDLQYIQDKEAYYISRIKSNTRMYQKNPNPDYFQDGRIKKGTEYIQIDIETLMNSLQPGQTCEVADAYVGMNDKVPARVIVHRLTKQQQQKRLQDQAVREKKKGMKYSPRSKRLSGINVYMTNTPTDIVPMGQVHDWYSLRWQIEILFKTWKSFFQIHHCKKIKAERLECHLYGQLIAILLCSSIMFQMRQLLLMKKKRELSEYKAIYMIKDYFLLLFQTIQKNTQELSKVLLRLFNLLQQNGRKSHRYEKKTVFDILGVVYNSMSDNQAEGHHHHHH,not soluble
7,KVIAGLYQRAFQHLSEAVQAAEEEAQPPSWSCGPAAGVIDAYMTLADFCDQQLRKEEENASVIDSAELQAYPALVVEKMLKALKLNSNEARLKFPRLLQIIERYPEETLSLMTKEISSVPCWQFISWISHMVALLDKDQAVAVQHSVEEITDNYPQAIVYPFIISSESYSFKDTSTGHKNKEFVARIKSKLDQGGVIQDFINALDQLSNPELLFKDWSNDVRAELAKTPVNKKNIEKMYERMYAALGDPKAPGLGAFRRKFIQTFGKEFDKHFGKGGSKLLRMKLSDFNDITNMLLLKMNKDSKPPGNLKECSPWMSDFKVEFLRNELEIPGQYDGRGKPLPEYHVRIAGFDERVTVMASLRRPKRIIIRGHDEREHPFLVKGGEDLRQDQRVEQLFQVMNGILAQDSACSQRALQLRTYSVVPMTSSDPRAPPCEYKDWLTKMSGKHDVGAYMLMYKGANRTETVTSFRKRESKVPADLLKRAFVRMSTSPEAFLALRSHFASSHALICISHWILGIGDRHLNNFMVAMETGGVIGIDFGHAFGSATQFLPVPELMPFRLTRQFINLMLPMKETGLMYSIMVHALRAFRSDPGLLTNTMDVFVKEPSFDWKNFEQKMLKKGGSWIQEINVAEKNWYPRQKICYAKRKLAGANPAVITCDELLLGHEKAPAFRDYVAVARGSKDHNIRAQEPESGLSEETQVKCLMDQATDPNILGRTWEGWEPWM,soluble
8,GSHMRTIIALETHDVRFPTSRELDGSDAMNPDPDYSAAYVVLRTDGAEDLAGYGLVFTIGRGNDVQTAAVAALAEHVVGLSVDKVIADLGAFARRLTNDSQLRWLGPEKGVMHMAIGAVINAAWDLAARAANKPLWRFIAELTPEQLVDTIDFRYLSDALTRDEALAILRDAQPQRAARTATLIEQGYPAYTTSPGWLGYSDEKLVRLAKEAVADGFRTIKLKVGANVQDDIRRCRLARAAIGPDIAMAVDANQRWDVGPAIDWMRQLAEFDIAWIEEPTSPDDVLGHAAIRQGITPVPVSTGEHTQNRVVFKQLLQAGAVDLIQIDAARVGGVNENLAILLLAAKFGVRVFPHAGGVGLCELVQHLAMADFVAITGKMEDRAIEFVDHLHQHFLDPVRIQHGRYLAPEVPGFSAEMHPASIAEFSYPDGRFWVEDLAASKAKA,soluble
9,MGSDKIHHHHHHEDDCATNPEPAGDVTEIKLSAGIQGVATRTPVSTNDNITAPFVASATTGDYTTNAWSSTVTFVASPTPTAALSFSPARYYPVDNSPIYIRGYYPAGTLSGKTVTLAGDGTEDVMLTAQASGTKATAGALSFVFNHLLTQLQFKLVAGAGYPASGVNVTSLVIKQQKTPATLDLNTSSLTYTTKDLTLSGTFPILTAGSTINNYPMVKSGEALTVAVTTSDGVTYPESTISVTTEVGKSHLITLTFTPKEITSSISVTAWQTGGTGSSTLQ,not soluble
10,GPGSMLTLRKQTLPVATATLLLQRRGVEYWGSSVTGRTQPYAQGDLIPRVDNMRHVVSKSSSAAANLTGSNLGVAYDSDTIFSVAGYSRAEKEHYRPLRGIARYKIEPMAESDTVAAQGLLEQAEMSKSISFVVSWWGGVLKDFPSLKKVCDDTFKEEFTSFYKSALSVAHDDAAVKALAVPFVRRQMQEHYISFPMFWRIAEKLADAIEKVPQMQKPARSVSRIAVERVTKIALNTIADEPWALDEMTSPLLFDVSNFRAWHEAGNW,not soluble
11,LLSPPIALKPLDSSAKWRIIYWNPNGCDKTCLKQLNMLGRVRLSFGRKLYQVDEWLLLSNKDSLIAEELKPILKEQDIHVAALSLTEMSKLSTLYPEAKIFIANPDNYLILSYQPGCNPGDIYKDLKLLLNTTE,not soluble
12,MNFKPIKPKKISTQIAEQIRSSILAGEFTPGEKLPPERELAEMFGVSRPSVREALNILAAAGLVESYQGGGTIVKSLMDAASGPPLSEIIKVEQERALDVIEVRKCMEAWTAYYAAQRALPDDVRKLEGIVWNMEANLNGLKPSEDLDANFHIVIARSTHNVVWLHLMQTIFEAMKEFQRSVWRAVYLTEEDHRTLFAHHKAIFEAIRDKDCERARNAMLGHLTFAEKRSSIYVNQSRQDR,not soluble
13,MRPNYTVSSSGTNKGSVLAVCNTTYYKSNKLISKNEITLYKGFRSLSTNHKIETIVHEFGHGFGLGHVKTKNAIMLDKGFINKTKPQTDDFNGIKALYKLEHHHHHH,not soluble
14,MSGKPPAIFLMGPTAAGKTDLAIELTTVLPCELISVDSALVYRGMDIGSAKPSKEVLAAHPHRLIDILDPAQSYSAAQFRADALEAMAEITARGKIPLLVGGTMLYYKALIDGLADMPAADATVRAELEAQAEALGLAELHRQLAEVDPESAARIHPNDPQRLIRALEVYRVSGESMTAHRRRQFAESRGADAGAGGHLPYTVASLAIAPTDRHILHQRIALRFSQMLEQGFVDEVRSLRARSDLHAGLPSIRAVGYRQVWDYLDGKLTENEMRERGIIATRQLAKRQFTWLRGWPEVHWLDSLACDNLSRTLKYLGAISILSLEHHHHHH,soluble
15,MSASRQRPGNHLLPTLFDRLCDDAPNQKRDHGISVSPVQIKEIIRRDLSFLLNTVSHEDDIDAARYPYAAASVLNYGLPPLAGSFLYEHKWDDIRRAILRTITRFEPRLKASTLQIIPLQDERRQSGHNTLQFEIRGEILTQPYPTAFRVRSALDMEQSRITFF,not soluble
16,MRGLAVLVLLVFAVQVAAAEDFRPVVFVHGLAGSAGQFESQGMRFAANGYPAEYVKTFEYDTISWALVVETDMLFSGLGSEFGLNISQIIDPETLDKILSKSRERLIDETFSRLDRVIDEALAESGADKVDLVGHSMGTFFLVRYVNSSPERAAKVAHLILLDGVWGVDAPEGIPTLAVFGNPKALPALGLPEEKVVYNATNVYFNNMTHVQLCTSPETFAVMFEFINGYKPATTDIVPQDGDYVKVKGKFLAFATNGDVSGWLSIYPIDENGKRLTRLPVKFMRVKGDFEVRLRKGQLYEFQFRKDFSPIIYHYYRAPFVRDDLWARFLVSKPPLDVELLILPERLSPAAKETSGLLLIRYKEMIGEYDEEIGGVDEVYVNGVNVCTERICPIERAVNGLWVFDRGADGKSDLDREVVRYSIMPFMSAADLVVPAEGTISIAVKSRTGGEESFTIPAWSADRHSIIVQFSDYIVDKLAAALEH,soluble
17,MDRKTRLSEPPTLALRLKPYKTAIQQLRSVIRALKENTTVTFLPTPSLILQTVRSHCVSKITFNSSCLYITDKSFQPKTINNSTPLLGNFMYLTSSKDLTKFYVQDISDLSAKISMCAPDFNMEFSSACVHGQDIVRESENSAVHVDLDFGVVADLLKWIGPHTRVKRNVKKAPCPTGTVQILVHAGPPAIKFILTNGSELEFTSNNRVSFHGVKNMRINVQLKNFYQTLLNCAVTKLPCTLRIVTEHDTLLYVASRNGLFAVENFLTEEPFQRGDPFDKNYVGNSGKSR,soluble
18,MRAASTSKPVGAHEETGHLGGAHSTYVSSAQVTNAEHENELQVVDLPRAPPSLSKAVTYFYITGFGRFALMEDNPTERVVLRLREILQDPGRVQMLHERLVRIVDLRILEVSAAAAHETLAEMKTQCLQMRQKPNISSDGRNRTVCFLHLGVDASADGFLVERSAVNEALFRFPDERGWQPTTPIPIVRGAQLGARYELDGEALASLCERTESLLNEWGRTNWTVRVNDDAGRFLCNYLFYLSAFEGLAENGHHLWQTFFLHCPMETVAPLDVQVDVVLAFMVAVAQSNAQQGPLEGILAR,soluble
19,MPIWNHNTAYRPWLVSKLKGSRSLLDVGSGDHSFADLAGRQVAHVDVVDPLINTTFEEFQPTQSYDAITFIASLHHMNAEEGLNKAVRILNPGGKLLIVGLAKNKTASDWIISGLQAFLSRPISLINREQQIYPFPTKEPSESLHEIRQLTKQLLPHRRIRRGIHFRYLLEWTKPLEHHHHHH,not soluble
20,MSSMEGKKVPQVTFRTRQGDKWVDVTTSELFDNKTVIVFSLPGAFTPTCSSSHLPRYNELAPVFKKYGVDDILVVSVNDTFVMNAWKEDEKSENISFIPDGNGEFTEGMGMLVGKEDLGFGKRSWRYSMLVKNGVVEKMFIEPNEPGDPFKVSDADTMLKYLAPQHQVQESISIFTKPGCPFCAKAKQLLHDKGLSFEEIILGHDATIVSVRAVSGRTTVPQVFIGGKHIGGSDDLEKYFA,soluble

# Reference: the DeepSol protein solubility set
